The results in this text go back to patent US12031137B2, “Compositions comprising SASP modulators and senescence attenuators and uses thereof for modulating cellular senescence” (RSEM, LIMITED PARTNERSHIP, priority 2016, dated 2024).

This experiment concerns SEMA3A-FC. Put plainly: Sema 3A binding assay on plate-coated purified traps (saturation curves, KD). To be noted: for Binding to SEMA3A: Table 2, Yes/No; for SEMA 3A-FC binding (dissociation constant) / Kd: traps coated on plate, overnight incubation; for Kd: read-out: SEMA 3A-FC binding (dissociation constant). As to the method: Sema 3A and AP-VEGF165 binding assays. Saturation curves for the determinations of KD of binding to SEMA 3A or VEGF165 were obtained as follow. Wells of high protein binding 96 well plates (Maxisorp, Nunc) were coated with purified traps diluted in PBS and blocked afterward with binding buffer (PBS containing 2% casein and 0.05% Tween 20). The SEMA3A-FC (R&D systems) or AP-VEGF165 ligands were diluted in binding buffer over an extensive range of concentrations and added to wells. Following an overnight incubation, wells were washed with PBS containing 0.05% tween. Bound SEMA3a-FC was detected using an HRP-linked anti-Human IgG (Biorad) and ECL substrate (Pierce). Alternatively, bound AP-VEGF165 was detected using CPD star substrate (Roche). The Chemiluminescent signal was acquired on a TECAN reader. Dissociation constant (KD) were determined by non-linear curve fitting using the Graph Pad prism software.
The relative affinity of traps of the present invention to SEMA3A and VEGF has been assessed. Traps were prepared as described in Example 8.

Where only a bound is given, the exact number is not on record here.

Regarding “Iso-b: Secreted NRP1 isoform-b/S12; 644 amino acids; a1a2-b1b2-c (in part); SEQ ID NO: 44”, the “Binding to SEMA3A” value is “Yes”.
Turning to “Iso-c: Secreted NRP1 isoform-c/Siv; 609 amino acids; a1a2-b1b2-c (in part); SEQ ID NO: 45”, the “Binding to SEMA3A” value is listed as “Yes”.
As for “Iso-d: Secreted NRP1 isoform S11; 704 amino acids; a1a2-b1b2-c (in part); SEQ ID NO: 46”, the “Binding to SEMA3A” value is recorded as “Yes”.
Regarding “Trap O: NRP1 trap a1a2-b1b2, aa about 22-583; SEQ ID NOs 77/78”, the “Binding to SEMA3A” value is “Yes”.

B1: Trap AG: NRP1 trap a1a2b2, aa about 22-280, 431-583 and 631-700; SEQ ID NOs 57/58 (protein)
chain: MERGLPLLCAVLALVLAPAGAFRNDKCGDTIKIESPGYLTSPGYPHSYHPSEKCEWLIQAPDPYQRIMINFNPHFDLEDRDCKYDYVEVFDGENENGHFRGKFCGKIAPPPVVSSGPFLFIKFVSDYETHGAGFSIRYELFKRGPECSQNYTTPSGVIKSPGFPEKYPNSLECTYIVFAPKMSEIILEFESFDLEPDSNPPGGMFCRYDRLEIWDGFPDVGPHIGRYCGQKTPGRIRSSSGILSMVFYTDSAIAKEGFSANYSVLQSSVSEDFKKITDYPCSGMLGMVSGLISDSQITSSNQGDRNWMPENIRLVTSRSGWALPPAPHSYINEWLQIDLGEEKIVRGIIIQGGKHRENKVFMRKFKIGYSNNGSDWKMIMDDSKRKAKSFEGNNNYDTPELRTFPALSTRFIRIYPERATHGGLGLRMELLGCRSGSKENLYFQG
Regarding B1, the “Binding to SEMA3A” value is given as “Yes”.

B2: Trap X: NRP1 trap a1a2-b1-c, aa about 22-430 and 584-856, Y297A; SEQ ID NOs 89/90 (protein)
chain: FRNDKCGDTIKIESPGYLTSPGYPHSYHPSEKCEWLIQAPDPYQRIMINFNPHFDLEDRDCKYDYVEVFDGENENGHFRGKFCGKIAPPPVVSSGPFLFIKFVSDYETHGAGFSIRYELFKRGPECSQNYTTPSGVIKSPGFPEKYPNSLECTYIVFAPKMSEIILEFESFDLEPDSNPPGGMFCRYDRLEIWDGFPDVGPHIGRYCGQKTPGRIRSSSGILSMVFYTDSAIAKEGFSANYSVLQSSVSEDFKCMEALGMESGEIHSDQITASSQASTNWSAERSRLNYPENGWTPGEDSYREWIQVDLGLLRFVTAVGTQGAISKETKKKYYVKTYKIDVSSNGEDWITIKEGNKPVLFQGNTNPTDVVVAVFPKPLITRFVRIKPATWETGISMRFEVYGCKITDYPEVEAPTAGPTTPNGNLVDECDDDQANCHSGTGDDFQLTGGTTVLATEKPTVIDSTIQSEFPTYGFNCEFGWGSHKTFCHWEHDNHVQLKWSVLTSKTGPIQDHTGDGNFIYSQADENQKGKVARLVSPVVYSQNSAHCMTFWYHMSGSHVGTLRVKLRYQKPEEYDQLVWMAIGHQGDHWKEGRVLLHKSLKLYQVIFEGEIGKGNLGGIAVDDISINNHISQEDCAKPADLDKKNPEIKIDETGSTPGYEGEGEGDKNISRKPGNVLKTLDPRSGSKENLYFQG
B2: the “Binding to SEMA3A” value was “No” and the “SEMA 3A-FC binding (dissociation constant)” value (“SEMA 3A-FC binding” below) is “No binding”.

B3: Trap P: NRP1 trap a1a2-b1, aa about 22-424, Y297A; SEQ ID NOs 83/84 (protein)
chain: FRNDKCGDTIKIESPGYLTSPGYPHSYHPSEKCEWLIQAPDPYQRIMINFNPHFDLEDRDCKYDYVEVFDGENENGHFRGKFCGKIAPPPVVSSGPFLFIKFVSDYETHGAGFSIRYELFKRGPECSQNYTTPSGVIKSPGFPEKYPNSLECTYIVFAPKMSEIILEFESFDLEPDSNPPGGMFCRYDRLEIWDGFPDVGPHIGRYCGQKTPGRIRSSSGILSMVFYTDSAIAKEGFSANYSVLQSSVSEDFKCMEALGMESGEIHSDQITASSQASTNWSAERSRLNYPENGWTPGEDSYREWIQVDLGLLRFVTAVGTQGAISKETKKKYYVKTYKIDVSSNGEDWITIKEGNKPVLFQGNTNPTDVVVAVFPKPLITRFVRIKPATWETGISMRFEVYGCRSGSKENLYFQG
As for B3, the “Binding to SEMA3A” value is reported as “No” and the “SEMA 3A-FC binding” value is on record as “No binding”.

B4: Trap Y: NRP1 trap a1a2-c, aa about 22-274 and 584-856; SEQ ID NOs 91/92 (protein)
chain: FRNDKCGDTIKIESPGYLTSPGYPHSYHPSEKCEWLIQAPDPYQRIMINFNPHFDLEDRDCKYDYVEVFDGENENGHFRGKFCGKIAPPPVVSSGPFLFIKFVSDYETHGAGFSIRYELFKRGPECSQNYTTPSGVIKSPGFPEKYPNSLECTYIVFAPKMSEIILEFESFDLEPDSNPPGGMFCRYDRLEIWDGFPDVGPHIGRYCGQKTPGRIRSSSGILSMVFYTDSAIAKEGFSANYSVLQSSVSEDFKEVEAPTAGPTTPNGNLVDECDDDQANCHSGTGDDFQLTGGTTVLATEKPTVIDSTIQSEFPTYGFNCEFGWGSHKTFCHWEHDNHVQLKWSVLTSKTGPIQDHTGDGNFIYSQADENQKGKVARLVSPVVYSQNSAHCMTFWYHMSGSHVGTLRVKLRYQKPEEYDQLVWMAIGHQGDHWKEGRVLLHKSLKLYQVIFEGEIGKGNLGGIAVDDISINNHISQEDCAKPADLDKKNPEIKIDETGSTPGYEGEGEGDKNISRKPGNVLKTLDPRSGSKENLYFQG
As to B4, the “Binding to SEMA3A” value is recorded as “No” and the Kd was > 750 nM.

B5: Trap Q: NRP1 trap a1a2-b1b2, aa about 22-583, Y297A; SEQ ID NOs 79/80 (protein)
chain: FRNDKCGDTIKIESPGYLTSPGYPHSYHPSEKCEWLIQAPDPYQRIMINFNPHFDLEDRDCKYDYVEVFDGENENGHFRGKFCGKIAPPPVVSSGPFLFIKFVSDYETHGAGFSIRYELFKRGPECSQNYTTPSGVIKSPGFPEKYPNSLECTYIVFAPKMSEIILEFESFDLEPDSNPPGGMFCRYDRLEIWDGFPDVGPHIGRYCGQKTPGRIRSSSGILSMVFYTDSAIAKEGFSANYSVLQSSVSEDFKCMEALGMESGEIHSDQITASSQASTNWSAERSRLNYPENGWTPGEDSYREWIQVDLGLLRFVTAVGTQGAISKETKKKYYVKTYKIDVSSNGEDWITIKEGNKPVLFQGNTNPTDVVVAVFPKPLITRFVRIKPATWETGISMRFEVYGCKITDYPCSGMLGMVSGLISDSQITSSNQGDRNWMPENIRLVTSRSGWALPPAPHSYINEWLQIDLGEEKIVRGIIIQGGKHRENKVFMRKFKIGYSNNGSDWKMIMDDSKRKAKSFEGNNNYDTPELRTFPALSTRFIRIYPERATHGGLGLRMELLGCRSGSKENLYFQG
For the molecule B5, the “Binding to SEMA3A” value was “No” and the “SEMA 3A-FC binding” value was “No binding”.

B6: Trap AF: NRP1 trap a1a2b2c, aa 1-280 and 431-856 incl. SP; SEQ ID NOs 55/56 (protein)
chain: MERGLPLLCAVLALVLAPAGAFRNDKCGDTIKIESPGYLTSPGYPHSYHPSEKCEWLIQAPDPYQRIMINFNPHFDLEDRDCKYDYVEVFDGENENGHFRGKFCGKIAPPPVVSSGPFLFIKFVSDYETHGAGFSIRYELFKRGPECSQNYTTPSGVIKSPGFPEKYPNSLECTYIVFAPKMSEIILEFESFDLEPDSNPPGGMFCRYDRLEIWDGFPDVGPHIGRYCGQKTPGRIRSSSGILSMVFYTDSAIAKEGFSANYSVLQSSVSEDFKKITDYPCSGMLGMVSGLISDSQITSSNQGDRNWMPENIRLVTSRSGWALPPAPHSYINEWLQIDLGEEKIVRGIIIQGGKHRENKVFMRKFKIGYSNNGSDWKMIMDDSKRKAKSFEGNNNYDTPELRTFPALSTRFIRIYPERATHGGLGLRMELLGCEVEAPTAGPTTPNGNLVDECDDDQANCHSGTGDDFQLTGGTTVLATEKPTVIDSTIQSEFPTYGFNCEFGWGSHKTFCHWEHDNHVQLKWSVLTSKTGPIQDHTGDGNFIYSQADENQKGKVARLVSPVVYSQNSAHCMTFWYHMSGSHVGTLRVKLRYQKPEEYDQLVWMAIGHQGDHWKEGRVLLHKSLKLYQVIFEGEIGKGNLGGIAVDDISINNHISQEDCAKPADLDKKNPEIKIDETGSTPGYEGEGEGDKNISRKPGNVLKTLDPRSGSKENLYFQG
As to B6, the “Binding to SEMA3A” value was “No” and the “SEMA 3A-FC binding” value is on record as “No binding”.

B7: Trap R: NRP1 trap a1a2-b1b2-c, aa about 22-856, Y297A; SEQ ID NOs 69/70 (protein)
chain: FRNDKCGDTIKIESPGYLTSPGYPHSYHPSEKCEWLIQAPDPYQRIMINFNPHFDLEDRDCKYDYVEVFDGENENGHFRGKFCGKIAPPPVVSSGPFLFIKFVSDYETHGAGFSIRYELFKRGPECSQNYTTPSGVIKSPGFPEKYPNSLECTYIVFAPKMSEIILEFESFDLEPDSNPPGGMFCRYDRLEIWDGFPDVGPHIGRYCGQKTPGRIRSSSGILSMVFYTDSAIAKEGFSANYSVLQSSVSEDFKCMEALGMESGEIHSDQITASSQASTNWSAERSRLNYPENGWTPGEDSYREWIQVDLGLLRFVTAVGTQGAISKETKKKYYVKTYKIDVSSNGEDWITIKEGNKPVLFQGNTNPTDVVVAVFPKPLITRFVRIKPATWETGISMRFEVYGCKITDYPCSGMLGMVSGLISDSQITSSNQGDRNWMPENIRLVTSRSGWALPPAPHSYINEWLQIDLGEEKIVRGIIIQGGKHRENKVFMRKFKIGYSNNGSDWKMIMDDSKRKAKSFEGNNNYDTPELRTFPALSTRFIRIYPERATHGGLGLRMELLGCEVEAPTAGPTTPNGNLVDECDDDQANCHSGTGDDFQLTGGTTVLATEKPTVIDSTIQSEFPTYGFNCEFGWGSHKTFCHWEHDNHVQLKWSVLTSKTGPIQDHTGDGNFIYSQADENQKGKVARLVSPVVYSQNSAHCMTFWYHMSGSHVGTLRVKLRYQKPEEYDQLVWMAIGHQGDHWKEGRVLLHKSLKLYQVIFEGEIGKGNLGGIAVDDISINNHISQEDCAKPADLDKKNPEIKIDETGSTPGYEGEGEGDKNISRKPGNVLKTLDPRSGSKENLYFQG
B7: the “Binding to SEMA3A” value was “Yes” and the Kd amounted to 6.15 nM.
